± gives the uncertainty stated by the source.
B1: Nuclear receptor subfamily 1 group D member 2, residues 103 to 171; numbered along this chain, Q14995 (parent)
chain: CKVCGDVASGFHYGVHACEGCKGFFRRSIQQNIQYKKCLKNENCSIMRMNRNRCQQCRFKKCLSVGMSR

Variants of: B1
Assay: abundance fitness (aPCA) (normalised: wild type 0, dead -1); higher = more abundant; growth selection in yeast, the domain comes from the species named
Conditions: Homo sapiens

Abundance fitness of substitutions, site by site:
I33: E -0.424 ± 0.089 | V -0.213 ± 0.048 | P -0.672 ± 0.12 | R -0.531 ± 0.058 | A -0.377 ± 0.058 | Y -0.181 ± 0.12 | W -0.668 ± 0.12 | F -0.38 ± 0.082 | G -0.338 ± 0.053 | H -0.493 ± 0.14 | M -0.35 ± 0.077 | L -0.065 ± 0.049 | S -0.527 ± 0.071 | Q -0.553 ± 0.11 | D -0.708 ± 0.088 | C -0.591 ± 0.097
A17: P -0.962 ± 0.3 | T -0.392 ± 0.14 | R -0.887 ± 0.16 | M -0.89 ± 0.21 | V -0.222 ± 0.058 | S -0.346 ± 0.1 | C 0.092 ± 0.041 | L -0.666 ± 0.14 | E -0.805 ± 0.15 | W -0.702 ± 0.18 | N -0.422 ± 0.43 | Q -0.902 ± 0.32
C38: G -0.836 ± 0.14 | Q -0.803 ± 0.45 | D -0.894 ± 0.31 | L -1.01 ± 0.22 | E -0.857 ± 0.27 | S -0.579 ± 0.075 | P -0.682 ± 0.35 | F -0.864 ± 0.28 | T -0.768 ± 0.26 | W -0.521 ± 0.13 | Y -0.785 ± 0.44 | A -0.74 ± 0.26 | R -0.842 ± 0.14 | V -0.551 ± 0.11
K37: V -0.387 ± 0.099 | D 0.255 ± 0.044 | I -0.279 ± 0.14 | L -0.473 ± 0.11 | T -0.234 ± 0.12 | P 0.27 ± 0.081 | Y -0.631 ± 0.35 | E -0.04 ± 0.1 | C -0.495 ± 0.18 | H -0.241 ± 0.18 | A 0.064 ± 0.081 | R -0.391 ± 0.1 | N 0.375 ± 0.11 | S 0.011 ± 0.07 | M 0.279 ± 0.17 | Q -0.075 ± 0.12 | W -0.225 ± 0.17
C18: I -0.355 ± 0.4 | R -0.751 ± 0.14 | G -0.813 ± 0.14 | K -0.829 ± 0.32 | E -0.847 ± 0.3 | V -0.79 ± 0.31 | S -0.812 ± 0.28 | A -0.515 ± 0.18 | W -0.752 ± 0.29 | M -0.537 ± 0.42 | L -0.692 ± 0.17 | Q -0.874 ± 0.22
G14: A -0.871 ± 0.23 | L -0.898 ± 0.18 | F -0.558 ± 0.41 | S -0.291 ± 0.11 | P -0.835 ± 0.24 | M -0.759 ± 0.2 | W -0.878 ± 0.22 | T -0.828 ± 0.38 | D -0.579 ± 0.49
G20: S 0.212 ± 0.27 | D 0.531 ± 0.19
Y13: W -0.152 ± 0.065 | V -0.528 ± 0.087 | T -0.572 ± 0.089
F24: N -0.908 ± 0.37 | K -1.04 ± 0.46 | P -0.52 ± 0.47 | R -0.924 ± 0.19 | T -0.422 ± 0.21 | I -1.02 ± 0.42 | G -0.798 ± 0.17 | W -0.723 ± 0.23 | S -0.661 ± 0.3 | A -1.09 ± 0.34 | V -0.81 ± 0.15 | E -0.68 ± 0.23 | L -0.272 ± 0.16 | Q -0.664 ± 0.41
G23: V -0.041 ± 0.47 | D 0.195 ± 0.34 | R -0.087 ± 0.5
K40: N 0.246 ± 0.32 | C -0.615 ± 0.19 | W 0.227 ± 0.047 | M -0.059 ± 0.11 | G 0.202 ± 0.042 | D 0.115 ± 0.09 | F 0.09 ± 0.11 | V -0.273 ± 0.057 | A 0.106 ± 0.056 | H -0.12 ± 0.13 | Q 0.206 ± 0.081 | Y 0.26 ± 0.12 | R -0.029 ± 0.048 | L -0.042 ± 0.051 | P -0.532 ± 0.13 | S 0.092 ± 0.056 | T 0.1 ± 0.079
I29: K -0.98 ± 0.29 | S -0.7 ± 0.067 | W -0.412 ± 0.13 | R -0.601 ± 0.11 | V -0.17 ± 0.075 | A -0.723 ± 0.14 | Q -0.339 ± 0.1 | L -0.19 ± 0.066 | E -0.675 ± 0.21 | M -0.14 ± 0.12 | C -0.388 ± 0.17 | N -0.058 ± 0.28 | F -0.081 ± 0.18 | Y -0.813 ± 0.36 | T -0.282 ± 0.091 | G -0.821 ± 0.13
Q31: L -0.169 ± 0.11 | I -0.635 ± 0.29 | K -0.391 ± 0.25 | E 0.197 ± 0.1 | G -0.152 ± 0.072 | N -0.475 ± 0.37 | Y -0.276 ± 0.18 | F 0.04 ± 0.2 | P -0.457 ± 0.15 | V -0.623 ± 0.13 | D -0.278 ± 0.18 | R -0.289 ± 0.075 | C -0.551 ± 0.15 | T -0.238 ± 0.11 | S -0.207 ± 0.12 | M -0.262 ± 0.15 | A -0.51 ± 0.099 | W -0.465 ± 0.12
H16: N -0.297 ± 0.19 | V -0.008 ± 0.059 | R -0.162 ± 0.067 | L 0.098 ± 0.056 | C -0.411 ± 0.12 | T -0.1 ± 0.12 | K -0.501 ± 0.15 | I -0.306 ± 0.15 | Y -0.096 ± 0.075 | E 0.219 ± 0.082 | F -0.062 ± 0.16 | P -0.085 ± 0.091 | D 0.264 ± 0.098 | A -0.169 ± 0.055 | M 0.123 ± 0.079 | G -0.412 ± 0.073
S28: T 0.24 ± 0.37 | V -0.419 ± 0.21 | W -0.733 ± 0.39 | K -0.801 ± 0.49 | M -0.291 ± 0.42 | G -0.748 ± 0.26 | C 0.179 ± 0.14
K36: D -0.439 ± 0.31 | Q -0.305 ± 0.27 | E 0.219 ± 0.35 | L -0.459 ± 0.17 | T -0.292 ± 0.2 | S 0.137 ± 0.18 | A -0.172 ± 0.12 | V -0.26 ± 0.12 | I -0.509 ± 0.48 | P -0.199 ± 0.16 | G 0.092 ± 0.11 | W -0.33 ± 0.2 | M -0.267 ± 0.24
F25: E -0.634 ± 0.48 | D -0.696 ± 0.42 | G -0.86 ± 0.28 | L -0.752 ± 0.19 | A -0.72 ± 0.2 | Y -0.481 ± 0.39 | W -0.332 ± 0.23 | P -0.836 ± 0.41 | Q -0.797 ± 0.23 | S -0.609 ± 0.16 | N -0.647 ± 0.47 | I -0.152 ± 0.18 | R -0.646 ± 0.19 | V -0.785 ± 0.22
R26: H -0.359 ± 0.41 | M 0.319 ± 0.42 | K -0.349 ± 0.34 | Y -0.246 ± 0.24 | G -0.092 ± 0.091 | V -0.383 ± 0.16 | L -0.226 ± 0.14 | T 0.092 ± 0.17 | I 0.342 ± 0.22 | W 0.408 ± 0.069 | Q 0.214 ± 0.15 | E -0.032 ± 0.15 | A 0.133 ± 0.058 | N 0.135 ± 0.18 | F -0.326 ± 0.43
R27: H 0.305 ± 0.27 | L -0.154 ± 0.13 | W 0.091 ± 0.23 | K -0.275 ± 0.21 | E 0.216 ± 0.25 | D 0.126 ± 0.19 | F -0.581 ± 0.33 | M 0.073 ± 0.19 | G -0.433 ± 0.12 | N 0.237 ± 0.32 | V 0.094 ± 0.096 | S -0.51 ± 0.23 | T -0.034 ± 0.24
L39: H -0.167 ± 0.17 | F -0.57 ± 0.24 | W -0.559 ± 0.18 | N 0.018 ± 0.13 | S 0.165 ± 0.082 | I 0.161 ± 0.2 | Y -0.02 ± 0.16 | E 0.262 ± 0.13 | T -0.121 ± 0.16 | P -0.106 ± 0.11 | D 0.321 ± 0.12 | M 0.1 ± 0.14 | A 0.084 ± 0.075 | G -0.163 ± 0.063 | Q -0.068 ± 0.15 | K -0.128 ± 0.18
N41: Y -0.492 ± 0.35 | A -0.219 ± 0.085 | H -0.638 ± 0.25 | F -0.717 ± 0.41 | G -0.036 ± 0.09 | T -0.047 ± 0.12 | E -0.063 ± 0.089 | W -0.664 ± 0.24 | S -0.022 ± 0.096 | V -0.446 ± 0.13 | L -0.348 ± 0.12 | Q -0.285 ± 0.16 | C -0.738 ± 0.19 | D -0.225 ± 0.24 | M -0.586 ± 0.17 | P -0.264 ± 0.13
E19: T -0.478 ± 0.28 | P -0.465 ± 0.42 | Q -0.699 ± 0.26 | M -0.884 ± 0.43 | R -0.058 ± 0.27 | W -0.325 ± 0.17 | L -0.858 ± 0.32 | V -0.669 ± 0.37 | S -0.583 ± 0.18 | D 0.114 ± 0.21 | Y -0.394 ± 0.36 | G -0.63 ± 0.19
E42: Q -0.23 ± 0.19 | G 0.13 ± 0.063 | M -0.008 ± 0.15 | T -0.671 ± 0.19 | S -0.172 ± 0.076 | H -0.231 ± 0.19 | V -0.798 ± 0.14 | L -0.847 ± 0.15 | F -0.809 ± 0.29 | N -0.004 ± 0.12 | C -0.592 ± 0.26 | D -0.025 ± 0.1 | K -0.109 ± 0.14 | R -0.639 ± 0.11
Q30: D 0.022 ± 0.16 | I -0.553 ± 0.5 | F -0.634 ± 0.3 | R -0.557 ± 0.16 | T 0.126 ± 0.17 | N -0.43 ± 0.49 | K -0.195 ± 0.17 | L -0.023 ± 0.095 | V -0.092 ± 0.098 | P -0.523 ± 0.32 | A 0.04 ± 0.096 | S -0.364 ± 0.21 | M -0.521 ± 0.41
N32: L -0.706 ± 0.099 | R -0.423 ± 0.068 | W -0.891 ± 0.12 | I -0.329 ± 0.12 | M -0.44 ± 0.14 | H -0.566 ± 0.14 | E 0.176 ± 0.083 | T -0.414 ± 0.092 | A -0.343 ± 0.077 | C -0.612 ± 0.2 | D -0.199 ± 0.093 | K -0.401 ± 0.11 | Q 0.144 ± 0.12 | V -0.672 ± 0.084 | G -0.074 ± 0.046 | Y -0.776 ± 0.17 | F -0.408 ± 0.14 | S -0.381 ± 0.072
V15: Y -0.492 ± 0.38 | D -0.746 ± 0.33 | N -0.954 ± 0.35 | C -0.623 ± 0.21 | M -0.753 ± 0.15 | T -0.961 ± 0.47 | I -0.327 ± 0.16 | S -0.954 ± 0.18 | E -0.679 ± 0.17 | P -0.67 ± 0.094 | Q -0.744 ± 0.2 | R -0.819 ± 0.1 | L -0.3 ± 0.1 | G -0.546 ± 0.08

Source: the Human Domainome abundance scans (Beltran et al. 2025)
